We go through 1 molecule from patent US20230329294A1 (CLARA FOODS, published 2023).

This assay has as its target bovine trypsin (bovine, UniProt P00760 24-246). Nature of the assay: cell-based or functional assay.

bovine trypsin, sequence (P00760 24-246): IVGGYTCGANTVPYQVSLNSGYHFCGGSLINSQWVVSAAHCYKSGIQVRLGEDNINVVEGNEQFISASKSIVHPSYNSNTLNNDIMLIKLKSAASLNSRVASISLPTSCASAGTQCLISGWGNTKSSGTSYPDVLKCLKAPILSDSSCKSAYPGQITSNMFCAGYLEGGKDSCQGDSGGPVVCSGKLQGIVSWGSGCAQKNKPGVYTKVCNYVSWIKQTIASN

B1: native chicken ovomucoid (other)
chain: AEVDCSRFPNATDKEGKDVLVCNKDLRPICGTDGVTYTNDCLLCAYSIEFGTNISKEHDGECKETVPMNCSSYANTTSEDGKVMVLCNRAFNPVCGTDGVTYDNECLLCAHKVEQGASVDKRHDGGCRKELAAVSVDCSEYPKPDCTAEDRPLCGSDNKTYGNKCNFCNAVVESNGTLTLSHFGKC
modifications: complex branched N-linked glycosylation (that includes mannose)
Take B1: the Trypsin inhibition activity was 13700 TIU/g.
